The record followed here is FireProtDB (doi:10.1046/j.1432-1327.1999.00751.x).

The conditions of the series: Pseudomonas aeruginosa (strain ATCC 15692 / DSM 22644 / CIP 104116 / JCM 14847 / LMG 12228 / 1C / PRS 101 / PAO1); pH 7.2; 20 °C; GdnHCl; CD + Fluorescence; Tris-HCl 50 mM; reversible: yes; whole UniProt chain shown.

B1: Azurin wild type, P00282 (protein)
chain: MLRKLAAVSLLSLLSAPLLAAECSVDIQGNDQMQFNTNAITVDKSCKQFTVNLSHPGNLPKNVMGHNWVLSTAADMQGVVTDGMASGLDKDYLKPDDSRVIAHTKLIGSGEKDSVTFDVSKLKEGEQYMFFCTFPGHSALMKGTLTLK
For the protein B1, the denaturant m value came to 3.3 kcal/mol/M, the “denaturant midpoint (higher = more stable)” value came to 2.78 M and the unfolding free energy was found to be 9.4 kcal/mol.
